According to PMC5557760:

Biological target: T1, PtpA (Mycobacterium tuberculosis) (UniProt P9WIA1)
T1 sequence: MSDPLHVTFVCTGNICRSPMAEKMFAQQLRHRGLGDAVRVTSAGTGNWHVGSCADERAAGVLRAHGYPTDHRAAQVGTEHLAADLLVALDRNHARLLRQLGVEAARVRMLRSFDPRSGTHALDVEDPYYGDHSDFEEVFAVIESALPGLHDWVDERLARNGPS
Assay: competition
Settings: EMSA: 10 ug PtpA, 10 nM biotin-labeled DNA, Beyotime GS009 binding buffer (salt, pH not stated), 20 min, room temperature, 15% native PAGE

Sequence: CCTTAAAACAAAAGACATGAAAAGATAATAAGAAAAAAGTGCCGCAACTATTATAGAAAAACACTTGGCAGCCTGCTTCAGCCCAAGCTGAGGCCACCTCTAGCCTCTGCTAAAGCCCCCCACTCCCAATGGTCCCCGCCAACCGGATAA (double strand) [GADD45A promoter -250 to -100, unlabeled negative competitor]
- binding: no binding
